Test in all cases: MST
In series [1] the target is OGG1 I145M I145M (Homo sapiens) (UniProt O15527). As to conditions: saturation not reached; N at position 11 of strand 1 = THF (tetrahydrofuran abasic site analog), opposite C; MST: 100 nM labeled duplex, 0.0185-3.28 uM protein, 10 mM Na phosphate pH 7.5, 7% glycerol; temperature not stated.
The target of series [2] is OGG1 R161W R161W (Homo sapiens) (UniProt O15527). The following applies: saturation not reached; N at position 11 of strand 1 = THF (tetrahydrofuran abasic site analog), opposite C; MST: 100 nM labeled duplex, 0.0185-3.28 uM protein, 10 mM Na phosphate pH 7.5, 7% glycerol; temperature not stated.
For series [3], the target named is OGG1 S292N S292N (Homo sapiens) (UniProt O15527). The following applies: saturation not reached; N at position 11 of strand 1 = THF (tetrahydrofuran abasic site analog), opposite C; MST: 100 nM labeled duplex, 0.0185-3.28 uM protein, 10 mM Na phosphate pH 7.5, 7% glycerol; temperature not stated.
The target of series [4] is OGG1 WT (Homo sapiens) (UniProt O15527). The following applies: N at position 11 of strand 1 = THF (tetrahydrofuran abasic site analog), opposite C; MST: 100 nM labeled duplex, 0.0185-3.28 uM protein, 10 mM Na phosphate pH 7.5, 7% glycerol; temperature not stated.

Drawing on article PMC7948927, this text covers Kd for 1 sequence.

OGG1 I145M I145M (Homo sapiens), sequence (O15527 whole entry I145M): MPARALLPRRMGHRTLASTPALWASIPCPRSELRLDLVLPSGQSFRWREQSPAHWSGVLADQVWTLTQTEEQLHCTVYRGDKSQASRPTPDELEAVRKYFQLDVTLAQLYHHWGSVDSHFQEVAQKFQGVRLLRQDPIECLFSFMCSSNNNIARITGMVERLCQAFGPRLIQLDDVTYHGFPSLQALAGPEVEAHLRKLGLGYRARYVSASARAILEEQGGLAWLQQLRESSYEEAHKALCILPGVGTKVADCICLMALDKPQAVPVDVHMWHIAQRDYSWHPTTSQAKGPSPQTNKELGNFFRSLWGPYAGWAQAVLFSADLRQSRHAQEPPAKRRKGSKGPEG
OGG1 R161W R161W (Homo sapiens), sequence (O15527 whole entry R161W): as the sequence (O15527 whole entry I145M) above, with M145I, R161W counted along it
OGG1 S292N S292N (Homo sapiens), sequence (O15527 whole entry S292N): as the sequence (O15527 whole entry I145M) above, with M145I, S292N counted along it
OGG1 WT (Homo sapiens), sequence (O15527 whole entry): as the sequence (O15527 whole entry I145M) above, with M145I counted along it

As usually defined, the Kd is the concentration at which binding is half-saturated. Low values mean higher affinity, high ones lower affinity. “CTCTCCCTTCNCTCCTTTCCTCT / AGAGGAAAGGAGCGAAGGGAGAG [THF:C duplex]”: the Kd in series [1] was 900 nM; in series [2], 1060 nM; in series [3], 1390 nM; in series [4], 140 nM.
